Experimental data taken from patent CN114935649A (dated 2022).

Target: T1, HPV6和HPV11的共同抗原表位肽 (SEQ ID NO:1) (HPV6 and HPV11)
T1 construct: also called 序列1的免疫抗原肽; HPV6和HPV11高免疫原性抗原肽
T1 peptide: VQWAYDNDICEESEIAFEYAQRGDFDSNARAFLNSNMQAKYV
Assay: SPR (ProteOn XPR36), antigen amine-coupled to GLC chip, antibody as analyte at 18.75-600 nM

B1: 单克隆抗体7C4c (antibody, V domains shown)
VH: EVQLEESATELARPGASVKLSCKASGYIFSGRWQAWIKQRPGQGLEWIGQELMWQAPHILEDSPGGKATLTADKSSSTAYMQLSSLASEDSAVYYCAGSQKWTACWGLGTTLAVSS
VL: DIVITQRPALMAASPGEKVTITCSTGYYPINQWCSWYQQKSGISPKPWIYINHDKTNGVPARFSGSGSGTSYSLTITSMEAEDAATYYCHSVQSSSCPFGAGTKLELK
B1 showed a Kd of 3.24 nM.
